Test results reported in patent US20220251194A1 (Merck Sharp & Dohme, published 2022).
Substitutions are numbered along the chain they refer to.

B1: Fab 128 (Fab, V domains shown)
VH: EVQLVQSGAEVKKPGASVKVSCKASGYTFTQYYYYWVRQAPGQGLEWIGGVNPSNGGTNFNEKFKSRVTLTVDTSISTAYMELSRLRSDDTSVYYCTRRDSNYDGGFDYWGQGTTVTVSS
VL: DIVMTQTPLSLSVTPGQPASISCRASKSVSTSGFSYLHWYLQKPGQPPQLLIFLGRHRASGVPDRFSGSGSGTDFTLKISRVEAEDVGVYYCQHSWELPLTFGQGTKLEIKR
B2: Fab 133 (Fab, V domains shown)
VH: B1 VH
VL: B1 VL with R56F, H57Y, A59T, Q93S, H94Q, S95M, W96A, E97D
B3: Fab 138 (Fab, V domains shown)
VH: B1 VH with Y34T, V51I, N52E, S54N, N55R, S92A
VL: B1 VL with G55A, R56S, H57N, R58L, A59E, Q93A, H94Q, S95T, W96F
B4: Fab 139 (Fab, V domains shown)
VH: B1 VH
VL: B1 VL with G55S, R56K, H57F, A59R

Target: T1, recombinant human or cyno PD-1 (immobilized onto CM5 chip, Example 1) (human or cyno ( which was …, UniProt Q15116 25-167, limits assumed))
T1 construct: also called antigen
Experiment: SPR (Biacore T200), PD-1 immobilized on CM5 chip, Fab as analyte
Procedure: Immobilization of recombinant human or cyno PD-1 onto CM5 chip: A CM5 sensor chip was activated in FC2 by 7-min. injection (10 μl/min.) of freshly prepared 1:1 50 mM NHS: 200 mM EDC. PD-1 at a concentration of 0.2 μg/ml in 10 mM sodium acetate buffer pH 5.0 was injected onto the activated chip at 5 μl/min. (HBS-EP running buffer: 10 mM HEPES, 150 mM NaCl, 3.4 mM EDTA, 0.005% surfactant P20, pH 7.4) for 120 seconds. The remaining active coupling sites were blocked with 7 min. injection of 1M ethanolamine at 10 μl/min.
Binding kinetics measurement: Various concentrations of the Fabs were injected with a flow rate of 30 μl/min for 180 seconds(s) during the association phase. The dissociation of bound antibody was monitored by flowing HBS-EP buffer over the chip surface for 600 seconds. At the end of each cycle, the sensor surfaces were regenerated by injecting regeneration buffer (10 mM glycine buffer with pH 1.7) for 180 seconds. After sensograms were corrected for signals from a reference flow, kinetics were calculated with BIACORE T 200 evaluation software ver.1.0 (Biacore, GE, USA).

T1 sequence (Q15116 25-167 limits assumed): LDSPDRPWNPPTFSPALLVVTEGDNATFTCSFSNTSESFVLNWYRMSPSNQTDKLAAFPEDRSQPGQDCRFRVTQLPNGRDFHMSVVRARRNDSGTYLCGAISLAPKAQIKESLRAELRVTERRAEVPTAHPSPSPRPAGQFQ

Kd [nM]	Binder
0.015	B1
0.031	B2
0.066	B3
0.014	B4
